From the DeepSol protein solubility set

Test: soluble on expression in E. coli; label from the status in PepcDB or PDB records

Sequence | soluble on expression in E. coli
MSNIFLSLEPKILWSHFYRLTQIPRPSGHEEAVRTYVADVAKRCGLEWLVDEAGNIIVRKPASAGMERRRGVILQAHLDMVPQKNAGTAHDFTKDPIDAVIDGEWVHARGTTLGADNGIGVAAALAVLESDDLRHGPLEALFTVNEEAGMTGALGLKPGVLRGDILLNLDSEDEGELFIGCAGGLDGTMRFDYSCEPLPPGYSGIEIRVSGLRGGHSGMDIDLGRGNANKIMNRLLQMGREHHGLLLASIDGGSLRNAIPRESVALVAVPSAQKVAFLDELHSLASAIGLELNGVDPELRVEAADAALPVGMIDDTVAQRLFDAVAACPNGVHRMSEAMAGLVETSNNLARVHSDGRAVSVECLLRSASVEGMRELADAVAGIAERAGTVAAFENGYPGWKPNPASPILKCMVKVYRDRFGKTPEIRAVHAGLECGIIGANNPQLDMISFGPTIRHPHSPDEKVECSSVLKFWELLVATLEEVPEPLEHHHHHH | not soluble
MSNIIARFHKIQVQDGVKVWYREAGAAGNPTILLLHGFPTSSNMFRNLIPLLAGQFHIIAPDLPGFGFTETPENYKFSFDSLCESIGYLLDTLSIEKFAMYIFDYGSPVGFRLALKFPSRITGIVTQNGNAYEEGLDDRFWGPLKEYWKSYQSDPVFVKSLIPYLEDPANVICQYHDGVPAIESVDPAAYTLDIALIQRTGQTDIQLRLFFDYQNNIKLYPAFQKFLRDSKIPVLVAWGANDTIFSVAGAEAYRKDVDNLKVVYYDTGHFALETHVVAIAEEIISMFAEN | soluble
MSNRVVIDHIGASGHGISNISHDSLSVPFTLPGEVAIVALRGKYGKLIALEKKSSERIDAICQHFENCGGCVLQHWHADAYRSWKRQLVIDALKRYGIDVFVSPLIEGGYQNRRRITLTALATQKGHIVGFNRYLSHDVIALEECPVTRLEIMSKLNSIKLLCALVGNHTKRFQVTVTSVENGLDVAFNGCVVRDEHIRQQMIHTALAYGMTRLSVEGEILVEREKPLVYFGDVCVEFPAGGFLQATFEAENIMGNIILAYLEKAKNAVDLFSGLGTFTLRMAKKMNVHAVENNETALANLDRAARFATGLKTITCERRDLFRRPLSAKELSCFECVVFDPPRAGAQEQVRELAKTTIPRVVTISCNPVTFARDLSLLVAGGYTIEKIIPIDQFLWSPHVEIVALLSKRKIKANWKL | not soluble
MSNTEERCDLSSSRDCPERHEHLLQRVTARAAEIGGGITVSRLMPSRQRRMIGAWCFLDHAGPAEFEPGGGLAVGPHPHIGLQTFTWMIQGEALHRDSLGNVQVIRPGQVNLMTAGHGIAHTEESLPDERHAHAAQLWIALPYEQRDIAPAFDHHPDLPRWQEQGVTFTLLAGALAGRQAPCRLYSPLLGADLACHDASTLQLTLDPHFEYGLLPLEGGLEVGGEHFAVNELAYLGDGRDGLQLQLDPGARVLLLGGAPFGAEIFMWWNFVGHSKGEIARAQKAWEEGDARFGRLDALEGPRLSAPPIPWKIDAE | not soluble
MSNYWLNIYKPRGISSAQLVSIVKKILGKTKIGHAGTLDVEAEGILPFAVGEATKLIHLLVDARKTYIFTVKFGMQTNSGDCAGKVIATKDCIPSQEEAYAVCSKFIGNVTQIPPAFSALKVNGVRAYKLAREGKKVELKPRNITIYDLKCLNFDEKNATATYYTECSKGTYIRTLAEDLALSLQSLGFVIELRRTQVGIFKEENAIRIKSPDEITKNALEENSIKIEAILDDILVLDATDSQAQQIKYGQKCLFNYEKDFRHLAKFAYREEFKGNTERNTTAYTLVREDASTGLTYKLPLEVEFGKMSVDLLWVRYKGTLLAIGSLNKSCFNSLRVFNLTQDFF | not soluble
MSPFMEKTLLLLGVLCCIQVTTALMCYDCNSEFDPRCGDPFEPYSIGEVNCSKQEPLEHLKDKYKPTLCRKTVQKIYGKTRIVRGCGYIPDENTDNKCVRRSGTHDVAAIYCSCTKDLCNGANSPAGQWMMLPLIVAAGLALLLNSRHTIRFQSS | not soluble
MSPLASRALSFLGALSLLTFAATPVLAESTPTAAPPQFAVESPKAASSLLLSVAHAGKRLVAVGDRGHILLSDDDGKTWTQAKVPTRQLLTSVFFVNERKGWAVGHDAQILVSDDAGSTWARQFEDLGREAPLLDIWFADEQHGLAVGAYGALLETRDGGQHWEDVSERLDNEDQFHLNAIAAVKDNGLLVVGEAGSLFRSKDWGATWEKLEGPYEGSLFGAIGTADAGGVLVYGLRGHLFRSADFGDSWEEIPLKAASGDLEFGLSDGALLADGRIVVVGHGGSVLESTDGGRSFSVFNRPDRLSLAGVSATGDGHLILVGQGGVHLAAANGAALEQQQLEHHHHHH | not soluble
MSPSPLISHRAASADLAGMVRQARQRILLQGNVPGFDVARQIELLHGLAESELGRFLLLYRGLNAEWTHRLVTHQPGSGALAPLERVFYERLPAVLATRERHGHFRRALQRHLRPGCVVASVPCGWMSELLALDYSACPGVQLVGIDYDPEALDGATRLAAGHALAGQITLHRQDAWKLDTREGYDLLTSNGLNIYEPDDARVTELYRRFWQALKPGGALVTSFLTPPPALSPDSPWDMQAIDPHDLQLQQLVFTRLIQPRWNALRTHAQTRAQLEEAGFTDLRFEDDRARLFPTVIARKPA | soluble
MSPVHWPIHPKEYKWTVKPSPGPHAIENSLPLMIIVRDILKVADNAREARKIINSGEVLVDGRPRKNYKFPVGFMDVVSIPRTGDVYRVLPDERGRLVLHPIDEENAGFKLCKIVNKTTIKGGRTQLNLHDGRNYLSDDEFRVGDVVKLSIPEQEILERIPFEKDSLGLVTGGRHTGEIGKIKKINITRSSMPNTAVIETGAGKTFLTLKDYVFVIGKDESVISLPGGKLEHHHHHH | not soluble
MSQDNLSAVLYGVDDLRLEQVPIPKPGPNQVLVKVHTVGICGSDVHYWTHGAIGPFVVKEPMIVGHETSGIVSEVGNEVKHLKVGDRIAMEPGLPCKLCEHCKTGRYNLCPEMRFFATPPVHGTLSRFVVHDADFCFKLPDNLSFEDGALIEPLSVAIHACRRGNVQMGHRVLVLGAGPIGVLNLITAKAVGAGKVVITDLDDGRLALAKKLGADATINVKGKSLDAVKSEIITALGDQQPDVCIECTGAQPSIETAITTTKSGGVIVLVGLGADRVEIPIIESATREVDMRGIFRYVNCYPTAIELISSGKLNLSGLTRAHYKLEETQEAFKRTQKADVIKVFIQC | not soluble
MSQEQLVAVNELNENLGKVLIKIARDSIANKLGILKINLEDYLSSLNDPILNKKGLAFVTLETYYGNSTSLRGCIGYVEAVAPLKEIVSKAAIAAAFSDPRFPPLSKGEFDNIIIEVTVLTKPQEIDVENRWELPKKIKVGEDGLIVEYGILYSGLLLPQVPMEYCWDEETFLAETCIKAGLEPDCWLNNKVKIKKFQGIIFREEKPKSEKILIIKPSEVKCKKEEISLL | soluble
MSQFTHYPPVSDKQLGFFIDSSRCSGCKACQVACKDKNNLEVGRRFRRVYEVKGGSFIPTGQGGVSNNVFAYTLSISCNHCADPVCTKNCPTTAMHKRPGDGIVRVDTDKCVGCGYCAWSCPYGAPQLNEQTGQMSKCDMCVDLLAKGEPPVCVATCPLEAIKFGPIDELRAKYGSVCDVNGLPDSSITKPNLVVKAHQGAEKEGKRHA | not soluble
MSQKQEEENPAEETGEEKQDTQEKEGILPERAEEAKLKAKYPSLGQKPGGSDFLMKRLQKGQKYFDSGDYNMAKAKMKNKQLPSAGPDKNLVTGDHIPTPQDLPQRKSSLVTSKLAGGQVE | soluble
MSQLFVRTGITFDSSQQALAHIGKEMLAKGVVHDSYPQALVEREASFPTGIALERHAVAIPHCEAVHAKSPAIYLIRPDKPVMFQQADDDEEIAVSLIIALIVENPAAQLKLLRRLFSELQNPSTLDALLSAPDAELAIRFQETILEPEQCVQV | not soluble
MSQNSDTFDSGLQMEVHKMAEADNSSVQQKFDAIRDYIGRKETTIILCEHDDSRKIKLTLNKQRMESSMFLTEMPDGGIQEKTKFHRNGLAVCSYNAFDEVDLPLADSYIFYGLPSNVEAFPRMLHGIEKSAHKENKIVFIDIVVSILEKIQIKVVSFELYNRKCTVPTWVAELVITYCAPIEEQQQRIEEIRRTRASVPVAISDAANGSAEMVPSNTTGSSGSPMSTAPVPAAKKEKVQYESIRQIRPNAQGRYFVPARMINMDIEMSNDEYSPDESENDENEYDYENAARYDDGYDEGHEYCQ | not soluble
MSQPAYRLFNVELKRREQLSPALTRFVFGGPEVAEMKTLAADQRIKIFFPDASGQPPSLPGGSEWYQAYRSVEPARRPPMRTYTIRALRAEQEEVDVEFVLHGENGPASAWATHARIGDRLQLAAPNRQYGDDPGGYEWKPPAGVRHILLIADETALPAVAGILEELAGETEPPVVEAFLEVPGEADILDLPAIPAARLHWLPRHQAGIHSRNGERMIEAARQARLPEREVAGGAAQELEDIDIDEEILWELASPESGSFYAWVAGESAAVMAIRRYLVQERGIDKRHLTLMGYWRLGKVFD | not soluble
MSQQIQMKSVIDVKFPTHLFSPLATSSPKLTRMRAPIRDQSWSSCSDDSSGNLTSQAITGVDDSHIEATKLENESSTSSCSMHTALEFVNSSIFERVRSYSEVITREELQSAIFERKLTETDCSKEEAEMYSIIVTERILWTAGRTWTGTIQVKTKDLLNDYVRYACEDWYMKHTGQLCAVELNHIGKWDEIFDSNAIAIYCYETGIPTIIVDRIFSSNLVRRSTGNYLDTKEVTWLIFAMIGTDENQSIEYWFRVLDVQSTGILQLDDLRMFYDAITKFLVNNNVQSLPFENAIAQFRDILGTDKWNLQSFKKNSQLAFRVINGFVCALRFLEQEICEKTNTERQDDEEFGMVRTRWQRLIDHKFDDYYAQSSTSSSGSFNINNEPINPV | not soluble
MSQSEEQNKDIPSSSNFGNPANNGVNVPDAPARRLFDNTSDESDVSLDNDDKTGAETDGSSSSRGCLKSERSRKDHASTSSTRTVRAPQQVSWSFGAKPATPHSQPPAGLKKVPAYSATSSSSQAGPSASTSTARKSSLVGGRGSASSSGHTSPSPSESPARNAGCSSSGESNPDRSLTTPPLAPALKHSAKDGHYRGQRSMSLGGPAHEMLMSQLGGRQGNTVDCSPGEGDKVCLLVDQTRFLVSQRLLTSKPDTMLGRMFSMRASCGDLGADLVSPNERDEFEVADGMTSSCFRAILDYYQSGTMRCPSSVSVSELREACDYLLVPFNAQTVKCQNLHALLHELSNEGAREQFSQFLEEIILPQLVASTEHGERECHLVVLLDDDVVDWDDEYPPQMGEETTHVVYSTHLYKFFKYAENRDCAKQVLKERGLKKIRLGMEGYPTHKEKIKKRFNKAEVIYNYVQRPFVHCSWEKEEARSRHVDFACPIVKSKSNPSLAAAASDPLPQPAPLQQQHRVAVFGEAAPLAAHNRVDDQHFVQPLNQLMQQQAQLPQNNAMLGVNVQQQQHNHPLHSPPVNFQRNDREEE | soluble
MSQTVHFQGNPVTVANVIPQAGSKAQAFTLVAKDLSDVSLSQYAGKRKVLNIFPSIDTGVCAASVRKFNQLATEVENTVVLCVSADLPFAQSRFCGAEGLSNVITLSTLRNNEFLKNYGVEIVDGPLKGLAARAVIVLDENDNVIFSQLVDEITHEPDYDAALNVLKA | not soluble
MSQYSLQVGLTPEGPCSYLPKQKERLAVVMEQELHTALGYQALIRLGFRRSGETIYKPMCEHCDACKPLRINANQFKPSKSQKRLLNKLSSFRWELKSEMDGNWFDLYERYINTRHKTGSMYPANQKQFFEFSHSHWLTNQFLHIYENETLIAIAVSDVLSDSISAMYTFFEPEHPLSLGTISVLIQLKLCKELSKEWLYPGYQIDDCPAMKYKDQYKPNQKLVNMVWQGLEHHHHHH | soluble
